Source: patent US20020055130A1, “Method and product for regulating apoptosis” (National Jewish Center for Immunology and Respiratory …, priority 1997, published 2002)

Target: JNK kinase/SEK-1 (endogenous, Swiss 3T3 cells) (UniProt P47809)
Assay: cell-based or functional assay

JNK kinase/SEK-1 (endogenous, Swiss 3T3 cells), sequence (P47809 2-397 limits assumed): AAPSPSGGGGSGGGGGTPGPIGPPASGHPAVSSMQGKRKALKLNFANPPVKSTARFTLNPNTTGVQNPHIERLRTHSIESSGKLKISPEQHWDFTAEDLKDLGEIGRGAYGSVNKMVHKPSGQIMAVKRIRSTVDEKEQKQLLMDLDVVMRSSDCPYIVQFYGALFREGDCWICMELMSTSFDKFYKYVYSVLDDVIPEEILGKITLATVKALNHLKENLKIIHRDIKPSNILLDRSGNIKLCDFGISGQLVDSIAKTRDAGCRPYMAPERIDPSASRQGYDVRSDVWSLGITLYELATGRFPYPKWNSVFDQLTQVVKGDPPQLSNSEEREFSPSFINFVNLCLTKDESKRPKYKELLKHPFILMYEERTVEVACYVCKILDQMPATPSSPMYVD

inhibition of Gal4/Jun activation in response to MEKKCOOH (luciferase reporter, transient transfection): 65%
Substance: competitive inhibitory JNK/SAPK mutant JNK/SAPK(APF)
